Measurements reported in IntAct's records for PubMed 19318624.

B1: Glycogen accumulation regulator GarA (Mycobacterium tuberculosis (strain ATCC 25618 / P9WJA9 (parent)
chain: MTDMNPDIEKDQTSDEVTVETTSVFRADFLSELDAPAQAGTESAVSGVEGLPPGSALLVVKRGPNAGSRFLLDQAITSAGRHPDSDIFLDDVTVSRRHAEFRLENNEFNVVDVGSLNGTYVNREPVDSAVLANGDEVQIGKFRLVFLTGPKQGEDDGSTGGP
B2: Glycogen accumulation regulator GarA (Mycobacterium tuberculosis (strain ATCC 25618 / P9WJA9 (parent)
chain: B1 chain
partner: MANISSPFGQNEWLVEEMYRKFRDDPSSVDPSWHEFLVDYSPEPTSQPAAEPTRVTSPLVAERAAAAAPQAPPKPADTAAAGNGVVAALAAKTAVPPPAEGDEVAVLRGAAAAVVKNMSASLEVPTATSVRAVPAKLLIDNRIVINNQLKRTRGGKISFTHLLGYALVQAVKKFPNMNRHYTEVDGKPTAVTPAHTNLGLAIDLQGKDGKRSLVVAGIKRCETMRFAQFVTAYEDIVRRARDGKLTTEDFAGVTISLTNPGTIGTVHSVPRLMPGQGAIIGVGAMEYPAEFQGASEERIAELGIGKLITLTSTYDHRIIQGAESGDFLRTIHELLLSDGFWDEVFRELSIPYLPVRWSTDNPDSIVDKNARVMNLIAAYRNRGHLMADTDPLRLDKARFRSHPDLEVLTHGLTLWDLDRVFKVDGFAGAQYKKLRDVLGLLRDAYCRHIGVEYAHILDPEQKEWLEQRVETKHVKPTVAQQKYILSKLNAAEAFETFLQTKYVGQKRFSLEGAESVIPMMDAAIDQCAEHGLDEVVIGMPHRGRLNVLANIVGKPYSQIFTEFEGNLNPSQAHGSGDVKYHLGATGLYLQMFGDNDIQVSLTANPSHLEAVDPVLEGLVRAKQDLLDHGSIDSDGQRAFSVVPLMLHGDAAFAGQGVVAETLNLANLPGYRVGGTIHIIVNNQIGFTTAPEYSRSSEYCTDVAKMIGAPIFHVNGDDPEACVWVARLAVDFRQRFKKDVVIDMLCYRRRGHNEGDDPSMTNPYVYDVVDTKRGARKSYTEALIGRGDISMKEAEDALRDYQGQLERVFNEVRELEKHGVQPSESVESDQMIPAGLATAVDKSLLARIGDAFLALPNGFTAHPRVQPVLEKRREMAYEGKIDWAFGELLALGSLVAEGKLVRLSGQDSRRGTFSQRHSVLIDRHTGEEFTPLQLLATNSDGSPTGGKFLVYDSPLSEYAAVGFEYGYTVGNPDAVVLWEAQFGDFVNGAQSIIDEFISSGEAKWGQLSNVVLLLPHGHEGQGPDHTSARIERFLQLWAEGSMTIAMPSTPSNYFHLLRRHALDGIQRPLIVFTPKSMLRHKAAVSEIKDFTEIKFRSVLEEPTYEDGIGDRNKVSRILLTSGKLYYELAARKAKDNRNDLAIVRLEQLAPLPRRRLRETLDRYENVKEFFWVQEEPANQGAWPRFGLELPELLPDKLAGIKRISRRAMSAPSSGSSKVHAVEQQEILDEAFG

Variants of: B1
Details: with gltb_myctu gltB

Variant | effect of a mutation on the interaction
S95A | disrupting interaction
N117A | disrupting interaction
K141E | disrupting interaction

Variants of: B1
Details: with dhe2_myctu gdh

Variant | effect of a mutation on the interaction
S95A | decreasing interaction
R143E | disrupting interaction
K141E | disrupting interaction

Variants of: B1
Details: with dhe2_myctu gdh
Remark: another data set of the same source

Variant | effect of a mutation on the interaction
N117A | decreasing interaction

Variants of: B2
Details: with kgd_myctu kgd

Variant | effect of a mutation on the interaction
K141E | disrupting interaction
R143E | disrupting interaction
N117A | disrupting interaction
